Laboratory results as given in patent US20130184160, “NUCLEOTIDES AND APTAMERS CONTAINING BORONIC ACID GROUPS HAVING BIASED BINDING TO GLYCOSYLATED PROTEINS, AND USES THEREOF” (published 2013).

Columns and labels:
[1] = biological target: Fibrinogen, deglycosylated (UniProt P02671-2;P02675;P02679 P02671-2:20-644,P02675:31-491,P02679:27-453); test: filter; same buffer; settings: tags: chemically deglycosylated with TFMS; chain copies: 2; label: alpha-32P-dATP
Experimental: (§1) Dissociation constants in solution were determined by equilibrium filtration (Jenison et al., Science 1994, 263, 1425-1429; Huang & Szostak, RNA 2003, 9: 1456-1463, incorporated herein by reference in their entireties). Using this technique, the bound and unbound ligand (DNA) partition between the two portions separated by a membrane. DNA was first amplified into dsDNA using two primers by PCR (25 cycles of 0.5 min at 94° C., 0.5 min at 46° C., and 0.5 min at 72° C., followed by 5 min at 72° C.). The dsDNA product was then split into ssDNA using one primer and α-³²P-dATP by one-round PCR. The ³²P-labeled ssDNA ligand (10 nM) and the protein (1-1000 nM) in the 100 μL of binding buffer were incubated for 15 min at 25° C. prior to loading into the Microcon YM-100 unit (Millipore, Billerica, Mass.). The solution was centrifuged at 13,000 g for 10 sec to saturate the membrane, and the filtrate was transferred back to the unit. The solution was centrifuged for another 20 sec, and the filtrate (about 10 μL) was collected. Aliquots (10 μL) were taken from both the remaining solution and the filtrate, and radioactivity in each aliquot was determined by Beckman LS 6500 liquid scintillation counter. All binding assays were duplicated. The equilibrium dissociation constants (Kd) of the ligand-protein interaction were obtained by fitting the dependence of bound fractions of specific binding on the concentration of the aptamers to the equation Y=B max X/(Kd+X), using the SigmaPlot program.
(§2) To determine the extent to which the aptamers 85A (SEQ ID NO.: 13), 85B (SEQ ID NO.: 14), and 85C (SEQ ID NO.: 15) bind specifically to fibrinogen, their dissociation constants (Kd) were measured using the equilibrium filtration method with radiolabeled α-³²P-dATP. The target substrate to which the aptamer was binding was fibrinogen (FIG. 12A), deglycosylated fibrinogen (FIG. 12B) and periodated fibrinogen (FIG. 12C).

[2] = biological target: Fibrinogen, periodate-treated (UniProt P02671-2;P02675;P02679 P02671-2:20-644,P02675:31-491,P02679:27-453); test: filter; same buffer; settings: tags: glycans oxidised with sodium periodate; chain copies: 2; label: alpha-32P-dATP
Sequence of Fibrinogen, periodate-treated (P02671 other isoform, or with tags, fused parts or gaps, chain 1 of 3): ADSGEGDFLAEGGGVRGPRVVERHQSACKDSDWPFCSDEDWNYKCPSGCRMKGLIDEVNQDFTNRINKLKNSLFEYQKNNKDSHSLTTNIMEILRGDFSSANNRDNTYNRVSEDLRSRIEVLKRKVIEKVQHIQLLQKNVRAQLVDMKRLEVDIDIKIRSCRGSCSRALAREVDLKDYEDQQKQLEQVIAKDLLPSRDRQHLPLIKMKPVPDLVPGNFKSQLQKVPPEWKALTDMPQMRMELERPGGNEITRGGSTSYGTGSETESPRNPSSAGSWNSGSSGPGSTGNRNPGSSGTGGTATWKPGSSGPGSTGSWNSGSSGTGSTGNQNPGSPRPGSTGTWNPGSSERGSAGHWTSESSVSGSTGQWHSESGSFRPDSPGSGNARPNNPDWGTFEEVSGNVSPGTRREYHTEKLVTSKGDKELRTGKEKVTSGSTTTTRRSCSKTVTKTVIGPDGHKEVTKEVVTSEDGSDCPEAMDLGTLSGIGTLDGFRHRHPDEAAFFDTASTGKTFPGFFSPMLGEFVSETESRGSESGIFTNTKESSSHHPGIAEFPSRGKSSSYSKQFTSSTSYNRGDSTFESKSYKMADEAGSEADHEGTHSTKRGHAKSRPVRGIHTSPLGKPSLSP
Sequence of Fibrinogen, periodate-treated (P02675 31-491, chain 2 of 3): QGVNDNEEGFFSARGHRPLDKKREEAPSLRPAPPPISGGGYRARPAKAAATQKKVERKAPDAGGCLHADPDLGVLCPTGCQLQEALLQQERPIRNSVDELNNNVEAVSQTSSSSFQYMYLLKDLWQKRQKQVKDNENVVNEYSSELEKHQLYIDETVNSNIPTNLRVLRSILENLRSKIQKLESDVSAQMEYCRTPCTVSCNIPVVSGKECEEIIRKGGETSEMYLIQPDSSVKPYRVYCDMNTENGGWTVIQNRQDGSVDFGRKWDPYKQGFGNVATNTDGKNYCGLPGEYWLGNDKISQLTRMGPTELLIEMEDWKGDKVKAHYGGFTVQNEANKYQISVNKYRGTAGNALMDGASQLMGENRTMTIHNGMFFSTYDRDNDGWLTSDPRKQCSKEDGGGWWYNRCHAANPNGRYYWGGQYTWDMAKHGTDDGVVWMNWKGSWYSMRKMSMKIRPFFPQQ
Sequence of Fibrinogen, periodate-treated (P02679 27-453, chain 3 of 3): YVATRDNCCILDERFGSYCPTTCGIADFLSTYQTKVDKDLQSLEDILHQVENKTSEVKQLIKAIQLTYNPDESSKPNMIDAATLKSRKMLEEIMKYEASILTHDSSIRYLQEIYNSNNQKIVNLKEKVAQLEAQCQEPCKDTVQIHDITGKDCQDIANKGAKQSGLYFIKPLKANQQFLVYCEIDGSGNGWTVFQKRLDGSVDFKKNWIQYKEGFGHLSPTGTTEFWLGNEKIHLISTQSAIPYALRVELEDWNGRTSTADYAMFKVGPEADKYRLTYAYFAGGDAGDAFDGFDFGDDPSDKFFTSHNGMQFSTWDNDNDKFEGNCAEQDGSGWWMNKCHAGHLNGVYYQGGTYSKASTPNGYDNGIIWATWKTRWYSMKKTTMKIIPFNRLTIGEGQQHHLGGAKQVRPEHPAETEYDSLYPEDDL
Experimental: as §1, §2

[3] = biological target: T1, Fibrinogen (glycosylated, untreated) (UniProt P02671-2;P02675;P02679 P02671-2:20-644,P02675:31-491,P02679:27-453); test: filter; same buffer; 64 nM in Table 1; settings: chain copies: 2; label: alpha-32P-dATP
T1 sequence (P02671 other isoform, or with tags, fused parts or gaps, chain 1 of 3): as the sequence (P02671 other isoform, or with tags, fused parts or gaps, chain 1 of 3) above
T1 sequence (P02675 31-491, chain 2 of 3): as the sequence (P02675 31-491, chain 2 of 3) above
T1 sequence (P02679 27-453, chain 3 of 3): as the sequence (P02679 27-453, chain 3 of 3) above
Experimental: as §1, with “The solution was centrifuged for another 20 sec, and the filtrate (about 10 μL) was collected.” left out, “All binding assays were duplicated. The equilibrium dissociation constants (Kd) of the ligand-protein interaction were obtained by fitting the dependence of bound fractions of specific binding on the concentration of the aptamers to the equation Y=B max X/(Kd+X), using the SigmaPlot program.” left out
(§3) To determine the extent to which the aptamers 85A (SEQ ID NO.: 13), 85B (SEQ ID NO.: 14), and 85C (SEQ ID NO.: 15) bind specifically to fibrinogen, their dissociation constants (Kd) were measured using the equilibrium filtration method with radiolabeled α-³²P-dATP. […]

[4] = biological target: T1, Fibrinogen (glycosylated, untreated); test: filter; same buffer; 193 nM in Table 1; settings: chain copies: 2; label: alpha-32P-dATP
Experimental: as §1, with “The solution was centrifuged for another 20 sec, and the filtrate (about 10 μL) was collected.” left out, “All binding assays were duplicated. The equilibrium dissociation constants (Kd) of the ligand-protein interaction were obtained by fitting the dependence of bound fractions of specific binding on the concentration of the aptamers to the equation Y=B max X/(Kd+X), using the SigmaPlot program.” left out
as §3

[5] = biological target: T1, Fibrinogen (glycosylated, untreated); test: filter; same buffer; 102 nM in Table 1; settings: chain copies: 2; label: alpha-32P-dATP
Experimental: as §1, with “The solution was centrifuged for another 20 sec, and the filtrate (about 10 μL) was collected.” left out, “All binding assays were duplicated. The equilibrium dissociation constants (Kd) of the ligand-protein interaction were obtained by fitting the dependence of bound fractions of specific binding on the concentration of the aptamers to the equation Y=B max X/(Kd+X), using the SigmaPlot program.” left out
as §3

[6] = biological target: Alpha-1 acid glycoprotein (UniProt P02763 P02763:19-201); test: filter; specificity control; settings: label: alpha-32P-dATP
Sequence of Alpha-1 acid glycoprotein (P02763 19-201, one chain of several): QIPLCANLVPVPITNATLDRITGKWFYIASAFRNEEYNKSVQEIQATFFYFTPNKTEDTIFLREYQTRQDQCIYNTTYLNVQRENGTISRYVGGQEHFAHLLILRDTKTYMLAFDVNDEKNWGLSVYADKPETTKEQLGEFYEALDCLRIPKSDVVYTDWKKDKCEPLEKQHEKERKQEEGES

Fetuin = biological target: T2, Fetuin (UniProt P12763 P12763:19-359); test: filter; specificity control; settings: label: alpha-32P-dATP
T2 sequence: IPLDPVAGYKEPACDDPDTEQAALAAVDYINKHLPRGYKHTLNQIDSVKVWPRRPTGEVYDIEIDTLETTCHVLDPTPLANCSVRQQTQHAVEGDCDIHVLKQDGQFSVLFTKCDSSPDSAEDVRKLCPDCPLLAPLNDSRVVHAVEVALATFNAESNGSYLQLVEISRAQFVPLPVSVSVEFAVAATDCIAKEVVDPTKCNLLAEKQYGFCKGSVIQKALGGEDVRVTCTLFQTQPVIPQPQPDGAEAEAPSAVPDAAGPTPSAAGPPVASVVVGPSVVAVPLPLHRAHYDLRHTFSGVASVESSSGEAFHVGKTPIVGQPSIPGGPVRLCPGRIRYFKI

[7] = biological target: T1, Fibrinogen (glycosylated, untreated); test: filter; same buffer; settings: chain copies: 2; label: alpha-32P-dATP
Experimental: as §1, §2

[8] = biological target: T1, Fibrinogen (glycosylated, untreated); test: filter; same buffer; boronic acid destroyed by peroxide; settings: chain copies: 2; label: alpha-32P-dATP

Sequence of Fibrinogen, deglycosylated (P02671 other isoform, or with tags, fused parts or gaps, chain 1 of 3): as the sequence (P02671 other isoform, or with tags, fused parts or gaps, chain 1 of 3) above
Sequence of Fibrinogen, deglycosylated (P02675 31-491, chain 2 of 3): as the sequence (P02675 31-491, chain 2 of 3) above
Sequence of Fibrinogen, deglycosylated (P02679 27-453, chain 3 of 3): as the sequence (P02679 27-453, chain 3 of 3) above

B1: 85B TTP (ssDNA)
DNA: CCTTCGTTGTCTGCCTTCGTAGGACCGCAGACATCGACGCAGGGAAATTCCGCAAGTCCAGCCAAATGCCACCCTTCAGAATTCGCACCA
Kd [1]: 140 nM | Kd [2]: 130 nM | Kd [3]: 63.8 nM

B2: 85C TTP (ssDNA)
DNA: CCTTCGTTGTCTGCCTTCGTAGTCGACTCTGACGCATGGACGTATCCTGTGCGTATGCATTATGAAGCACACCCTTCAGAATTCGCACCA
Kd [1]: 256 nM | Kd [2]: 321 nM | Kd [4]: 122 nM

B3: 85A TTP (ssDNA)
DNA: CCTTCGTTGTCTGCCTTCGTAGCGGATCGAATTACGCGTTAACGGCAACCGATAACGGGACCGATTGCACACCCTTCAGAATTCGCACCA
Kd [5]: 102 nM | Kd [1]: 60.2 nM | Kd [2]: 67.4 nM | Kd [6]: 600 nM | Kd (Fetuin): 1600 nM

B4: 85A M-TTP (ssDNA)
DNA: B3 DNA
modifications: T positions from M-TTP (alkyne-modified dU without boronic acid)
Kd [7]: 138 nM

B5: 85A B-TTP H2O2-treated (ssDNA)
DNA: B3 DNA
modifications: B-TTP positions with boronic acid oxidised by peroxide
Kd [8]: 173 nM
